This is an account of results in IntAct's records for PubMed 25910212.

First the molecules themselves.
B1: Mothers against decapentaplegic homolog 3 (Homo sapiens), P84022 (parent)
chain: MSSILPFTPPIVKRLLGWKKGEQNGQEEKWCEKAVKSLVKKLKKTGQLDELEKAITTQNVNTKCITIPRSLDGRLQVSHRKGLPHVIYCRLWRWPDLHSHHELRAMELCEFAFNMKKDEVCVNPYHYQRVETPVLPPVLVPRHTEIPAEFPPLDDYSHSIPENTNFPAGIEPQSNIPETPPPGYLSEDGETSDHQMNHSMDAGSPNLSPNPMSPAHNNLDLQPVTYCEPAFWCSISYYELNQRVGETFHASQPSMTVDGFTDPSNSERFCLGLLSNVNRNAAVELTRRHIGRGVRLYYIGGEVFAECLSDSAIFVQSPNCNQRYGWHPATVCKIPPGCNLKIFNNQEFAALLAQSVNQGFEAVYQLTRMCTIRMSFVKGWGAEYRRQTVTSTPCWIELHLNGPLQWLDKVLTQMGSPSIRCSSVS
partner: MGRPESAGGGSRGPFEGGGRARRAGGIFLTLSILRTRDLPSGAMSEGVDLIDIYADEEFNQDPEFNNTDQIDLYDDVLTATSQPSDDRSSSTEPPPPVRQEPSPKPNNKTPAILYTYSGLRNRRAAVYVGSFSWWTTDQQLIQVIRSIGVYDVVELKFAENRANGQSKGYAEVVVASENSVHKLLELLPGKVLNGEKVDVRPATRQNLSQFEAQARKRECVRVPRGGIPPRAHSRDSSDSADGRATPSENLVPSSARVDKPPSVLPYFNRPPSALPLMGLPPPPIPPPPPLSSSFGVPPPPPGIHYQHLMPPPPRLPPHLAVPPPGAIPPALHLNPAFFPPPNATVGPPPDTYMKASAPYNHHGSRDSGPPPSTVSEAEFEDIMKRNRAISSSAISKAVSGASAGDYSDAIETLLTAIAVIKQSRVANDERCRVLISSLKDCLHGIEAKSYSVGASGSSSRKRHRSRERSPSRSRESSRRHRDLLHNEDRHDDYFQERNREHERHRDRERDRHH
B2: Chorion-specific transcription factor GCMb (Homo sapiens), O75603 (parent)
chain: MPAAAVQEAVGVCSYGMQLSWDINDPQMPQELALFDQFREWPDGYVRFIYSSDEKKAQRHLSGWAMRNTNNHNGHILKKSCLGVVVCTQACTLPDGSRLQLRPAICDKARLKQQKKACPNCHSALELIPCRGHSGYPVTNFWRLDGNAIFFQAKGVHDHPRPESKSETEARRSAIKRQMASFYQPQKKRIRESEAEENQDSSGHFSNIPPLENPEDFDIVTETSFPIPGQPCPSFPKSDVYKATCDLATFQGDKMPPFQKYSSPRIYLPRPPCSYELANPGYTNSSPYPTLYKDSTSIPNDTDWVHLNTLQCNVNSYSSYERSFDFTNKQHGWKPALGKPSLVERTNHGQFQAMATRPYYNPELPCRYLTTPPPGAPALQTVITTTTKVSYQAYQPPAMKYSDSVREVKSLSSCNYAPEDTGMSVYPEPWGPPVTVTRAASPSGPPPMKIAGDCRAIRPTVAIPHEPVSSRTDEAETWDVCLSGLGSAVSYSDRVGPFFTYNNEDF
B3: U4/U6 small nuclear ribonucleoprotein Prp31 (Homo sapiens), Q8WWY3 (parent)
chain: MSLADELLADLEEAAEEEEGGSYGEEEEEPAIEDVQEETQLDLSGDSVKTIAKLWDSKMFAEIMMKIEEYISKQAKASEVMGPVEAAPEYRVIVDANNLTVEIENELNIIHKFIRDKYSKRFPELESLVPNALDYIRTVKELGNSLDKCKNNENLQQILTNATIMVVSVTASTTQGQQLSEEELERLEEACDMALELNASKHRIYEYVESRMSFIAPNLSIIIGASTAAKIMGVAGGLTNLSKMPACNIMLLGAQRKTLSGFSSTSVLPHTGYIYHSDIVQSLPPDLRRKAARLVAAKCTLAARVDSFHESTEGKVGYELKDEIERKFDKWQEPPPVKQVKPLPAPLDGQRKKRGGRRYRKMKERLGLTEIRKQANRMSFGEIEEDAYQEDLGFSLGHLGKSGSGRVRQTQVNEATKARISKTLQRTLQKQSVVYGGKSTIRDRSSGTASSVAFTPLQGLEIVNPQAAEKKVAEANQKYFSSMAEFLKVKGEKSGLMST
partner: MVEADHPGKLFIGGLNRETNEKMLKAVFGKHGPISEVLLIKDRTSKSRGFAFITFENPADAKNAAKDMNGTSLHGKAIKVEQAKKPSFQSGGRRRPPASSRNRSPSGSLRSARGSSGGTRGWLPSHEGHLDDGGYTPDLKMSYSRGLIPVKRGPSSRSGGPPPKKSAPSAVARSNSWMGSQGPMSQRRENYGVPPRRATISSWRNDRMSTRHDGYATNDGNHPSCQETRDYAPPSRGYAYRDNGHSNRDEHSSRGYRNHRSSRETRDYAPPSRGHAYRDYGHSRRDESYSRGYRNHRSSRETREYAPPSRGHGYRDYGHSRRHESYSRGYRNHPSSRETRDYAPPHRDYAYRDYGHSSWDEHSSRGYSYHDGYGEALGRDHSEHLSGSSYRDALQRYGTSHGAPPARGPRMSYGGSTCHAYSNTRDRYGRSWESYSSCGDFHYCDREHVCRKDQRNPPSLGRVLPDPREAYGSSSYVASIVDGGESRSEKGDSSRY
B4: Mitochondrial import inner membrane translocase subunit Tim8 A (Homo sapiens), O60220 (parent)
chain: MDSSSSSSAAGLGAVDPQLQHFIEVETQKQRFQQLVHQMTELCWEKCMDKPGPKLDSRAEACFVNCVERFIDTSQFILNRLEQTQKSKPVFSESLSD
B5: U4/U6 small nuclear ribonucleoprotein Prp3 (Homo sapiens), O43395 (parent)
chain: MALSKRELDELKPWIEKTVKRVLGFSEPTVVTAALNCVGKGMDKKKAADHLKPFLDDSTLRFVDKLFEAVEEGRSSRHSKSSSDRSRKRELKEVFGDDSEISKESSGVKKRRIPRFEEVEEEPEVIPGPPSESPGMLTKLQIKQMMEAATRQIEERKKQLSFISPPTPQPKTPSSSQPERLPIGNTIQPSQAATFMNDAIEKARKAAELQARIQAQLALKPGLIGNANMVGLANLHAMGIAPPKVELKDQTKPTPLILDEQGRTVDATGKEIELTHRMPTLKANIRAVKREQFKQQLKEKPSEDMESNTFFDPRVSIAPSQRQRRTFKFHDKGKFEKIAQRLRTKAQLEKLQAEISQAARKTGIHTSTRLALIAPKKELKEGDIPEIEWWDSYIIPNGFDLTEENPKREDYFGITNLVEHPAQLNPPVDNDTPVTLGVYLTKKEQKKLRRQTRREAQKELQEKVRLGLMPPPEPKVRISNLMRVLGTEAVQDPTKVEAHVRAQMAKRQKAHEEANAARKLTAEQRKVKKIKKLKEDISQGVHISVYRVRNLSNPAKKFKIEANAGQLYLTGVVVLHKDVNVVVVEGGPKAQKKFKRLMLHRIKWDEQTSNTKGDDDEESDEEAVKKTNKCVLVWEGTAKDRSFGEMKFKQCPTENMAREHFKKHGAEHYWDLALSESVLESTD
partner: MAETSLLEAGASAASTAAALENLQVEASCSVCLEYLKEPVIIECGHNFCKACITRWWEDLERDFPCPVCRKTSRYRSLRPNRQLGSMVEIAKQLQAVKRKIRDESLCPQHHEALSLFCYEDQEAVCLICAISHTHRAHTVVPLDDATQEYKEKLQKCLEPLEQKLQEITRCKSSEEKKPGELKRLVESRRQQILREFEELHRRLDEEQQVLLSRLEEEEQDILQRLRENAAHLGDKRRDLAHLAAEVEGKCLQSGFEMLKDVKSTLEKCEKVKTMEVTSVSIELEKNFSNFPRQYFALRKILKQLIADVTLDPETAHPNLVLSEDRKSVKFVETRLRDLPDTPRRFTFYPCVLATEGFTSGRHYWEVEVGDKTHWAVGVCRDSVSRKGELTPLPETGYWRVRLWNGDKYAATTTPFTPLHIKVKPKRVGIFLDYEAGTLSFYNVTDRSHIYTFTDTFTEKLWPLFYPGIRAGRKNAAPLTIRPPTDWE
B6: Carbonic anhydrase-related protein (Homo sapiens), P35219 (parent)
chain: MADLSFIEDTVAFPEKEEDEEEEEEGVEWGYEEGVEWGLVFPDANGEYQSPINLNSREARYDPSLLDVRLSPNYVVCRDCEVTNDGHTIQVILKSKSVLSGGPLPQGHEFELYEVRFHWGRENQRGSEHTVNFKAFPMELHLIHWNSTLFGSIDEAVGKPHGIAIIALFVQIGKEHVGLKAVTEILQDIQYKGKSKTIPCFNPNTLLPDPLLRDYWVYEGSLTIPPCSEGVTWILFRYPLTISQLQIEEFRRLRTHVKGAELVEGCDGILGDNFRPTQPLSDRVIRAAFQ
B7: Neuromedin-B (Homo sapiens), P08949-2 (parent)
chain: MARRAGGARMFGSLLLFALLAAGVAPLSWDLPEPRSRASKIRVHSRGNLWATGHFMGKKSLEPSSPSPLGTAPHTSLRDQRLQLSHDLLGILLLKKALGVSLSRPAPQIQEAAGTNTAEMTPIMGQTQQRGLDCAHPGKVLNGTLLMAPSGCKS
B8: Retinol dehydrogenase 12 (Homo sapiens), Q96NR8 (parent)
chain: MLVTLGLLTSFFSFLYMVAPSIRKFFAGGVCRTNVQLPGKVVVITGANTGIGKETARELASRGARVYIACRDVLKGESAASEIRVDTKNSQVLVRKLDLSDTKSIRAFAEGFLAEEKQLHILINNAGVMMCPYSKTADGFETHLGVNHLGHFLLTYLLLERLKVSAPARVVNVSSVAHHIGKIPFHDLQSEKRYSRGFAYCHSKLANVLFTRELAKRLQGTGVTTYAVHPGVVRSELVRHSSLLCLLWRLFSPFVKTAREGAQTSLHCALAEGLEPLSGKYFSDCKRTWVSPRARNNKTAERLWNVSCELLGIRWE
B9: CD151 antigen (Homo sapiens), P48509 (parent)
chain: MGEFNEKKTTCGTVCLKYLLFTYNCCFWLAGLAVMAVGIWTLALKSDYISLLASGTYLATAYILVVAGTVVMVTGVLGCCATFKERRNLLRLYFILLLIIFLLEIIAGILAYAYYQQLNTELKENLKDTMTKRYHQPGHEAVTSAVDQLQQEFHCCGSNNSQDWRDSEWIRSQEAGGRVVPDSCCKTVVALCGQRDHASNIYKVEGGCITKLETFIQEHLRVIGAVGIGIACVQVFGMIFTCCLYRSLKLEHY

In the first test the parent is B1. Particulars: with CPSF7, Q8N684-3.
Take I170V: the “effect of a mutation on the interaction” value was “with no effect”.

With N197I, the “effect of a mutation on the interaction” value is “with no effect”.

In a further test the parent is B2. As to conditions: with crx_human CRX.
Target sequence in this assay (O43186 whole entry): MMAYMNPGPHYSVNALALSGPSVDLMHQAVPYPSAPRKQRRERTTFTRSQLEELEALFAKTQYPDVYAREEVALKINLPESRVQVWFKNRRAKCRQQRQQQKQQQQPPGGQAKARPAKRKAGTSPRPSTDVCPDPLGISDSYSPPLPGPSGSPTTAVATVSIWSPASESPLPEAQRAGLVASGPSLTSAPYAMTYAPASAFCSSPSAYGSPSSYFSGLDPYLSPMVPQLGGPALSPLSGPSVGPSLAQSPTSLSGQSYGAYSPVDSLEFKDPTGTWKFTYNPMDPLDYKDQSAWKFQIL
For G63S, the “effect of a mutation on the interaction” value is recorded as “with no effect”.

As for G203S, the “effect of a mutation on the interaction” value is “with no effect”.

As to R47L, the “effect of a mutation on the interaction” value is “with no effect”.

Variants of B2 are the subject of another test. Particulars: with RBPMS.
On to G63S, for which the “effect of a mutation on the interaction” value is listed as “disrupting interaction strength”.

With G203S, the “effect of a mutation on the interaction” value is given as “with no effect”.

As to R47L, the “effect of a mutation on the interaction” value is “with no effect”.

In the next test the parent is B3. Particulars: with rby1f_human RBMY1F.
As for L107V, the “effect of a mutation on the interaction” value is on record as “with no effect”.

Variants of B4 are the subject of another test. Particulars: with stam2_human STAM2, O75886.
As to C66W, the “effect of a mutation on the interaction” value is “disrupting interaction strength”.

The variants in a further test derive from B5. As to conditions: with TRIM39, Q9HCM9-2.
P493S: the “effect of a mutation on the interaction” value is given as “disrupting interaction strength”.

In the case of A489D, the “effect of a mutation on the interaction” value is “disrupting interaction strength”.

Regarding T494M, the “effect of a mutation on the interaction” value is “disrupting interaction strength”.

Another test covers variants of B6. Particulars: with int7_human INTS7, Q9NVH2.
Sequence of int7_human INTS7, Q9NVH2 (Q9NVH2 whole entry): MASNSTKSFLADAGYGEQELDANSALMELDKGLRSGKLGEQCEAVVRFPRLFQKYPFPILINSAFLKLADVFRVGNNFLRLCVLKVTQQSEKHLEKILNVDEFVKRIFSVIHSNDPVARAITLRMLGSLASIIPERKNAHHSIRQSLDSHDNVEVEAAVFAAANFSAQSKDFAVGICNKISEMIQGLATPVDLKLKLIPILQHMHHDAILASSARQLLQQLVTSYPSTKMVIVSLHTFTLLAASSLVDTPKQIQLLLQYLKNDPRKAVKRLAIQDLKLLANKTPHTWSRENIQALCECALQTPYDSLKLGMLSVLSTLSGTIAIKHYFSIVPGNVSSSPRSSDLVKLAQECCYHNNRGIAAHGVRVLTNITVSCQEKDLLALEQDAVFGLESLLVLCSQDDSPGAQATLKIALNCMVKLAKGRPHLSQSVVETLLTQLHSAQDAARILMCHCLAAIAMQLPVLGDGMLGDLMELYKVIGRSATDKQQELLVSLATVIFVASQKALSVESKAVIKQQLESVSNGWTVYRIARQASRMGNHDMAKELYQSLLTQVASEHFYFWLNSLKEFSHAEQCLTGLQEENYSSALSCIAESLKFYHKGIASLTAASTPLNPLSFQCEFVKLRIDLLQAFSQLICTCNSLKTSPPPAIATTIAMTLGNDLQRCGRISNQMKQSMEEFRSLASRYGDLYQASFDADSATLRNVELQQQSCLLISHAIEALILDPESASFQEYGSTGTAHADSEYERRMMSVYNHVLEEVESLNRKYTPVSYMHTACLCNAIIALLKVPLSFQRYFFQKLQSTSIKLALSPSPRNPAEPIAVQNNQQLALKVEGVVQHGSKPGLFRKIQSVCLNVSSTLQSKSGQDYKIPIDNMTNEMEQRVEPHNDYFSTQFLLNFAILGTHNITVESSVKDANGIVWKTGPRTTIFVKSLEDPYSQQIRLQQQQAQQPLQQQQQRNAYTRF
Take S100P: the “effect of a mutation on the interaction” value is on record as “disrupting interaction strength”.

Variants of B6 are the subject of a further test. Particulars: with crx_human CRX.
Target sequence in this assay (O43186 whole entry): as the sequence (O43186 whole entry) above
As to S100P, the “effect of a mutation on the interaction” value was “disrupting interaction strength”.

The next test covers variants of B7. As to conditions: with birc2_human BIRC2, Q13490.
Sequence of birc2_human BIRC2, Q13490 (Q13490 whole entry): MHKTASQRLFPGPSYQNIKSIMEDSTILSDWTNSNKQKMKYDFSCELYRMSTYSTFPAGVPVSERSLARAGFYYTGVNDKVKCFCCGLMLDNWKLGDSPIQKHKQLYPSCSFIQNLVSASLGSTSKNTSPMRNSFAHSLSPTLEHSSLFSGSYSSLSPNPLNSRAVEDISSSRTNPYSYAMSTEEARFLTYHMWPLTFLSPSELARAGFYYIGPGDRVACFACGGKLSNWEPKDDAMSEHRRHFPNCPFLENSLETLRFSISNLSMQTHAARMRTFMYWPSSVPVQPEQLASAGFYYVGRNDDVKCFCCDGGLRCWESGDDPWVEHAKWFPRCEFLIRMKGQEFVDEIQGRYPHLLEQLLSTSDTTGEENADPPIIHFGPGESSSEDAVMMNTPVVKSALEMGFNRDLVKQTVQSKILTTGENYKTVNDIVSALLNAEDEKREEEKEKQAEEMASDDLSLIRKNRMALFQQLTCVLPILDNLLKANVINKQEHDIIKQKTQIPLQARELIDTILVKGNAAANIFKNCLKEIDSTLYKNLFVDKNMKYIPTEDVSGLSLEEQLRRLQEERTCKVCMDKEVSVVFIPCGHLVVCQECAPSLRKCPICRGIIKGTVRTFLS
Consider M120I, for which the “effect of a mutation on the interaction” value was “with no effect”.

In another test the parent is B8. Particulars: with RBPMS.
On to T49M, for which the “effect of a mutation on the interaction” value is on record as “with no effect”.

Regarding L99I, the “effect of a mutation on the interaction” value was “with no effect”.

Regarding P230A, the “effect of a mutation on the interaction” value was “with no effect”.

With C285Y, the “effect of a mutation on the interaction” value is given as “with no effect”.

The next test covers variants of B9. As to conditions: with astrc_human GRAMD1C.
As to R171C, the “effect of a mutation on the interaction” value is on record as “disrupting interaction strength”.

Consider R178H, for which the “effect of a mutation on the interaction” value was “with no effect”.
